Results published in publication PMC5066616, “Rapid dynamics of general transcription factor TFIIB binding during preinitiation complex assembly revealed by single-molecule analysis”.

Tests used:
[1] = target: TFIID–TFIIA complex on promoter DNA (TFIID–TFIIA–promoter complex) (human) (UniProt P20226); experiment: single-molecule fluorescence colocalisation (TIRF); supercore promoter DNA and a mutant control template (-63 to +90) immobilised via biotin–streptavidin; dye-labelled factors injected with unlabelled ones; a signal within ∼40 nm of a DNA position counted as binding; 2.5 Hz; 11.3 mM HEPES pH 7.9, 5.6 mM MgCl2, 45 mM KCl; the target protein is DNA-bound
[2] = target: T1, TBP;TFIIA;TFIIB full length (human;human;human, UniProt P20226;P52655;P52657;Q00403 1-339;1-376;1-109;1-316, ||); experiment: EMSA; 10 nM DNA; Single-molecule: 11.3 mM HEPES pH 7.9, 5.6 mM MgCl2, 45 mM KCl, 45 uM EDTA, 4.5% glycerol, 3.6 ng/ul tRNA, 0.1 ng/ul poly(dG:dC), 0.09% Tween 20, 0.0045% NP40; conditions: protein: recombinant;recombinant;recombinant; tags: N-terminal 6xHis-HaloTag; TMR; GST removed by Ulp1;N-terminal tag incl. thrombin site, Ni-NTA purified; Alexa647 or TMR; copies: 1;1;1;1; label: 5' Cy3 or Atto633; 5' biotin; blunt
[3] = target: T1, TBP;TFIIA;TFIIB full length; experiment: EMSA; 10 nM DNA; similar efficiency to supercore; Single-molecule: 11.3 mM HEPES pH 7.9, 5.6 mM MgCl2, 45 mM KCl, 45 uM EDTA, 4.5% glycerol, 3.6 ng/ul tRNA, 0.1 ng/ul poly(dG:dC), 0.09% Tween 20, 0.0045% NP40; conditions: protein: recombinant;recombinant;recombinant; tags: N-terminal 6xHis-HaloTag; TMR; GST removed by Ulp1;N-terminal tag incl. thrombin site, Ni-NTA purified; Alexa647 or TMR; copies: 1;1;1;1; label: 5' Cy3 or Atto633; 5' biotin; blunt

Sequence of TFIID–TFIIA complex on promoter DNA (TFIID–TFIIA–promoter complex) (human) (P20226 whole entry, looked up, one chain of several): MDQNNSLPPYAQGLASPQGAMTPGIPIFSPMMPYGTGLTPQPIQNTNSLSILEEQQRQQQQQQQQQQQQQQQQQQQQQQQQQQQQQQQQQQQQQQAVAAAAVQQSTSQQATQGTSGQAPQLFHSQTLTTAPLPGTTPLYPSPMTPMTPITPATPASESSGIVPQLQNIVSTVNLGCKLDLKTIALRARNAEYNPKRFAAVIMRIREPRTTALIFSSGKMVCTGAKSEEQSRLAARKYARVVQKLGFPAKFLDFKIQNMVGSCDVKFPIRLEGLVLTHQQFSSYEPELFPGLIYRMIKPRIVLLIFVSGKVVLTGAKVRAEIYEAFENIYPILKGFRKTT
T1 sequence (P20226 whole entry, chain 1 of 4): as the sequence (P20226 whole entry, looked up, one chain of several) above
T1 sequence (P52655 whole entry, chain 2 of 4): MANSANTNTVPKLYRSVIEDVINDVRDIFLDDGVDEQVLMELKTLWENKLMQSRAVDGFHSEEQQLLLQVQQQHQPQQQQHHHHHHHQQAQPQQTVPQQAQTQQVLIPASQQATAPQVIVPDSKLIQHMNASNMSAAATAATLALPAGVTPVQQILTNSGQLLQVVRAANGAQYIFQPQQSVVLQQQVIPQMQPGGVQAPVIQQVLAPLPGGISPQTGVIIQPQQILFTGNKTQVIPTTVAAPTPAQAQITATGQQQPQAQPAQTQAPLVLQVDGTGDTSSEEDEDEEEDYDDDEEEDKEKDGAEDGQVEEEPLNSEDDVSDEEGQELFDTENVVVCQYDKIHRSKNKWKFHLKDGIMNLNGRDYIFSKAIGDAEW
T1 sequence (P52657 whole entry, chain 3 of 4): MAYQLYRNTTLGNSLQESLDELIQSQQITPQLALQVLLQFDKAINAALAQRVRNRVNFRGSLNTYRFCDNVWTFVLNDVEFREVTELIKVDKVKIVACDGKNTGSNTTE
T1 sequence (Q00403 whole entry, chain 4 of 4): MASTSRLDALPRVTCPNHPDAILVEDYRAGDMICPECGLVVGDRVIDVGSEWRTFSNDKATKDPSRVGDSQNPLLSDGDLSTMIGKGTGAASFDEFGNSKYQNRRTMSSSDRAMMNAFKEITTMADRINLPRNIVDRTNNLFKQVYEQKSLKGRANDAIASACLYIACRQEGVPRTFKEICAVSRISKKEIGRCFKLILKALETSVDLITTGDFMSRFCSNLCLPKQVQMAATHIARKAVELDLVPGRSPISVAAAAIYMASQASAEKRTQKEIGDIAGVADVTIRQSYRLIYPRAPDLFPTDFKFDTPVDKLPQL

## TFIIB, full-length (FL) (from UniProt Q00403 1-316) (natural protein)
[1]
  DNA-binding efficiency (percent of supercore templates colocalising with TFIIB): 30%
  average residence time: 1.5 s
  average waiting time after TFIIA arrival (∼8 nM TFIIB): 3 s

B1: Supercore promoter template, EMSA (dsDNA)
DNA 1: CATAACCATATGTATCATACACATACGGTACTTATATAAGGGGGTGGGGGCGCGTTCGTCCTCAGTCGCGATCGAACACTCGAGCCGAGCAGACGTGCCTACGGACCGCAAGCTTCCCTATCCCTTATCTTAACCACTCCAATTACATACACC
DNA 2: GGTGTATGTAATTGGAGTGGTTAAGATAAGGGATAGGGAAGCTTGCGGTCCGTAGGCACGTCTGCTCGGCTCGAGTGTTCGATCGCGACTGAGGACGAACGCGCCCCCACCCCCTTATATAAGTACCGTATGTGTATGATACATATGGTTATG
[2]
  binding result: binds

B2: Mutant control template, EMSA (dsDNA)
DNA 1: CATAACCATATGTATCATACACATACGGTACACGTATGTGGGGGTGGGGGCGCGTTCGTCCTGTGACACGATCGAACACTCGAGCCGAGCAGCATAGCCTACGGACCGCAAGCTTCCCTATCCCTTATCTTAACCACTCCAATTACATACACC
DNA 2: GGTGTATGTAATTGGAGTGGTTAAGATAAGGGATAGGGAAGCTTGCGGTCCGTAGGCTATGCTGCTCGGCTCGAGTGTTCGATCGTGTCACAGGACGAACGCGCCCCCACCCCCACATACGTGTACCGTATGTGTATGATACATATGGTTATG
[3]
  binding result: binds
